Data as given in patent US20240026037A1 (Memorial Sloan Kettering, published 2024).

What was measured:
[1] = target: T1, Human GPA33 on GPA33+ colorectal cancer cell lines (Colo 205, LS 174T, SW 1222) (human, UniProt Q99795 22-319); experiment: FACS titration on Colo205 cells, geometric mean MFI
T1 construct: Endogenous GPA33 on human colorectal cancer cell lines; also called surface human GPA33; GPA33+ tumor cell lines
T1 sequence: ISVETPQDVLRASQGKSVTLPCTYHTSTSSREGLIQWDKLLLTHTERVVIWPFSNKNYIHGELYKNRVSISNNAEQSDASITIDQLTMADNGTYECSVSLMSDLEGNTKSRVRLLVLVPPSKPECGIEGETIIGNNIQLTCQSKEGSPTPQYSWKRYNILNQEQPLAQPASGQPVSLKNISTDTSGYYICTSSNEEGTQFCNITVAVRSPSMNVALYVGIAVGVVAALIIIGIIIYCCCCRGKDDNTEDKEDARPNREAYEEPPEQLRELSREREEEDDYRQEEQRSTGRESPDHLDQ

[2] = target: T1, Human GPA33 on GPA33+ colorectal cancer …; experiment: FACS titration on LS174T cells, geometric mean MFI [Cont.]
[3] = target: T1, Human GPA33 on GPA33+ colorectal cancer …; experiment: FACS titration on SW1222 cells, geometric mean MFI [Cont.]
[4] = target: T2, Human GPA33 (recombinant protein, Novoprotein) (human, UniProt Q99795 22-235); experiment: SPR (Biacore) on immobilized GPA33, 25 C per legend paragraph 44; two-state fit
T2 construct: Bought recombinant protein immobilized on a CM5 chip; also called GPA33 antigen; tumor antigen GPA33
T2 sequence: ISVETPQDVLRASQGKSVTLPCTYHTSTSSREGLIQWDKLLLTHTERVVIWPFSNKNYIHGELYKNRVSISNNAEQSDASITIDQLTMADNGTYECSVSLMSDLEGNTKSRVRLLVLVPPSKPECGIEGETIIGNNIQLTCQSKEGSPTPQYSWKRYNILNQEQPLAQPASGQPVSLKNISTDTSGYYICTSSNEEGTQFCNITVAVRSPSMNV
Method: (§1) SPR analysis. Human GPA33 (Novoprotein, Summit, NJ) was immobilized on CM5 chips. Five concentrations of 2-fold serially diluted huA33 IgG1 or huA33-BsAbs (starting at 20 nM) were flowed over the chip using a Biacore™ T100 system (GE Healthcare, Chicago, IL). Binding kinetics of huA33 were measured at 25° C. and binding kinetics of huA33-BsAbs were measured at both 25° C. and 37° C. The sensorgrams were fitted with two state binding model for both to derive kinetic parameters.

[5] = target: T2, Human GPA33 (recombinant protein, …); experiment: SPR (Biacore), human GPA33 immobilised on the chip; KD relative to that of BC015
Outline: (§2)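 Affinity (KD) was measured by surface plasmon resonance on a Biacore system, with recombinant human GPA33 (Novoprotein) immobilised on a CM5 sensor chip. Antibodies were injected at five concentrations, 2-fold serial dilutions starting at 20 nM. The sensorgrams were fitted kinetically to give rate constants and KD. Each KD is given as a ratio to the KD of a reference molecule.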

[6] = target: T2, Human GPA33 (recombinant protein, …); experiment: SPR (Biacore) on immobilized GPA33, 25 C per legend paragraph 44; column ka1 of the two-state fit
Method: as §1

[7] = target: T2, Human GPA33 (recombinant protein, …); experiment: SPR (Biacore) on immobilized GPA33, 25 C per legend paragraph 44; column kd1 of the two-state fit
Method: as §1

[8] = target: T2, Human GPA33 (recombinant protein, …); experiment: SPR (Biacore), human GPA33 immobilised on the chip; two-state fit (ka1, kd1, ka2, kd2); temperature not given on the sheet
Method: as §1

[9] = target: T2, Human GPA33 (recombinant protein, …); experiment: SPR
Outline: as §2

[10] = target: T1, Human GPA33 on GPA33+ colorectal cancer …; experiment: flow cytometry, LS 174T cells
[11] = target: T1, Human GPA33 on GPA33+ colorectal cancer …; experiment: flow cytometry, SW 1222 cells
[12] = target: T1, Human GPA33 on GPA33+ colorectal cancer …; experiment: flow cytometry, Colo 205 cells; Colo 205 cells
[13] = target: T1, Human GPA33 on GPA33+ colorectal cancer …; experiment: FACS binding to LS174T cells (GPA33+)
[14] = target: T1, Human GPA33 on GPA33+ colorectal cancer …; experiment: FACS binding to SW1222 cells (GPA33+)
[15] = target: T1, Human GPA33 on GPA33+ colorectal cancer …; experiment: FACS binding to Colo205 cells (GPA33+)
[16] = target: T2, Human GPA33 (recombinant protein, …); experiment: SPR (Biacore), human GPA33 immobilized on CM5 chip, two-state fit
Outline: (§3)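 GPA33 immobilized on CM5 chip; five 2-fold dilutions of huA33 IgG1 or huA33 bispecifics from 20 nM injected. Kinetics measured at 25 °C for huA33, at both 25 °C and 37 °C for bispecifics; sensorgrams fitted to a two-state binding model.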

[17] = target: T2, Human GPA33 (recombinant protein, …); experiment: SPR (Biacore), human GPA33 immobilized on CM5 chip, two-state fit, ka1
Outline: as §3

[18] = target: T2, Human GPA33 (recombinant protein, …); experiment: SPR (Biacore), human GPA33 immobilized on CM5 chip, two-state fit, kd1
Outline: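 Kinetic parameters, including the off-rate (kd1), were obtained by fitting surface plasmon resonance sensorgrams to a two-state binding model. On a Biacore T100 with recombinant human GPA33 immobilised on a CM5 chip, antibodies were passed over at five 2-fold serial dilutions from 20 nM. Runs used 25° C for the parent IgG1, and 25° C and 37° C for the bispecific formats.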

[19] = target: T1, Human GPA33 on GPA33+ colorectal cancer …; experiment: FACS binding to Colo205 cells (GPA33+); the text prints 2.46 nM for this pair
[20] = target: T2, Human GPA33 (recombinant protein, …); experiment: SPR (Biacore), human GPA33 immobilised on the chip; KD relative to that of TC170
Outline: as §2

[21] = target: T1, Human GPA33 on GPA33+ colorectal cancer …; experiment: FACS titration on Colo205 cells, geometric mean MFI (the text prints 2.46 nM and calls it IC50)
[22] = target: T2, Human GPA33 (recombinant protein, …); experiment: SPR (Biacore), human GPA33 immobilized on CM5 chip, IgG format
Method: as §1

[23] = target: T1, Human GPA33 on GPA33+ colorectal cancer …; experiment: cell binding to LS174T Luc cells; IgG format
[24] = target: T1, Human GPA33 on GPA33+ colorectal cancer …; experiment: cell binding to SW1222 Luc cells; IgG format

B1: BC016 (G3A H3L3) (bispecific antibody, human IgG1, kappa, N297A)
heavy: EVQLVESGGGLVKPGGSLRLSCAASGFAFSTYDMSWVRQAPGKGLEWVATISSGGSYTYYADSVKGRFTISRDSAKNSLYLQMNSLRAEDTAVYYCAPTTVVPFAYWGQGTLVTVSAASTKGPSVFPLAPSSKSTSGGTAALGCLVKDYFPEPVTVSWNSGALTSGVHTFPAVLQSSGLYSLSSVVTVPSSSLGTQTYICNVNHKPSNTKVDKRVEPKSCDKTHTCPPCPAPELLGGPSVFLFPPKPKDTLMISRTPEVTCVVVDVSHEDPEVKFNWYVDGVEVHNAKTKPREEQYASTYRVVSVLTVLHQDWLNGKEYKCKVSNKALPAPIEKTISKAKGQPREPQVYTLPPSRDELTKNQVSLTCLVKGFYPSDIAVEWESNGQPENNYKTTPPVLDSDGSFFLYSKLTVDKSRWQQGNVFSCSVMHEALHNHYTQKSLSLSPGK
light: DIQMTQSPSSLSTSVGDRVTITCKASQNVRTVVAWYQQKPGKAPKTLIYLASNRHSGVPSRFSGSGSGTEFTLTISNLQPEDFATYYCLQHWSYPLTFGSGTKLEVKRTVAAPSVFIFPPSDEQLKSGTASVVCLLNNFYPREAKVQWKVDNALQSGNSQESVTEQDSKDSTYSLSSTLTLSKADYEKHKVYACEVTHQGLSSPVTKSFNRGECTSGGGGSGGGGSGGGGSHVQLVESGGGLVQPGGSLRLSCAASGFSLTDYGVHWVRQAPGKGLEWLGVIWSGGGTAYNTALISRFTISRDNSKNTLYLQMNSLRAEDTAVYYCARRGSYPYNYFDAWGCGTLVTVSSGGGGSGGGGSGGGGSGGGGSGGGGSGGGGSQAVVTQEPSLTVSPGGTVTLTCGSSTGAVTASNYANWVQQKPGQCPRGLIGGHNNRPPGVPARFSGSLLGGKAALTLLGAQPEDEAEYYCALWYSDHWVIGGGTKLTVLG
notes: GPA33xDOTA IgG-[L]-scFv; The anti-DOTA scFv is fused to the C-terminus of the light chain
- EC50 [1]: 0.74 nM
- EC50 [2]: 0.65 nM
- EC50 [3]: 0.35 nM
- Kd [4]: 0.00792 nM
- Fold change of KD (relative to BC015, lower is better) [5]: 0.07
- kon [6]: 5.5e+06 M⁻¹ s⁻¹
- koff [7]: 0.000511 s⁻¹
- Kd [8]: 0.00792 nM

B2: TC159 (bispecific antibody)
chain: EVQLVESGGGLVKPGGSLRLSCAASGFAFSTYDMSWVRQAPGKRLEWVATISSGGSYTYYLDSVKGRFTISRDNAKNSLYLQMNSLRAEDTAVYYCAPTTVVPFAYWGQGTLVTVSSGGGGSGGGGSGGGGSGGGGSGGGGSGGGGSDIQMTQSQSSLSTSVGDRVTITCKASQNVRTVVAWYQQKPGKSPKTLIYLASNRHTGVPSRFSGSGSGTEFTLTISNVQPEDFADYFCLQHWSYPLTFGSGTKLEIKRGGGGSGGGGSGGGGSGGGGSHVQLVESGGGLVQPGGSLRLSCAASGFSLTDYGVHWVRQAPGKGLEWLGVIWSGGGTAYNTALISRFTISRDNSKNTLYLQMNSLRAEDTAVYYCARRGSYPYNYFDAWGCGTLVTVSSGGGGSGGGGSGGGGSGGGGSGGGGSGGGGSQAVVTQEPSLTVSPGGTVTLTCGSSTGAVTASNYANWVQQKPGQCPRGLIGGHNNRPPGVPARFSGSLLGGKAALTLLGAQPEDEAEYYCALWYSDHWVIGGGTKLTVLGTPLGDTTHTSGKPLDGEYFTLQIRGRERFEMFRELNEALELKDAQAGKEPGGSGGAPHHHHHH
notes: Previously described GPA33xDOTA SADA clone whose GPA33 scFv comes from another clone; Carries the p53 SADA (tetramerization) domain
- fold higher affinity than TC160 [9]: 3 fold
- IC50 [10]: 1.22 nM
- IC50 [11]: 0.4 nM
- EC50 [12]: 2.46 nM
- fold change of binding EC50 (relative to TC170, lower is better) [13]: 3.94
- fold change of binding EC50 (relative to TC170, lower is better) [14]: 0.24
- fold change of binding EC50 (relative to TC170, lower is better) [15]: 3.34
- Kd [16]: 0.0216 nM
- ka2 [16]: 0.00613 s⁻¹
- kd2 [16]: 0.000315 s⁻¹
- kon [17]: 4.09e+06 M⁻¹ s⁻¹
- koff [18]: 0.00181 s⁻¹
- EC50 [19]: 2.47 nM
- Fold change of KD (relative to TC170, lower is better) [20]: 1.4
- EC50 [21]: 2.47 nM

B3: Humanized A33 antibody with variable heavy chain VH1 and variable light chain VK4 (antibody, IgG1, V domains shown)
VH: EVQLVESGGGLVKPGGSLRLSCAASGFAFSTYDMSWVRQAPGKGLEWVSTISSGGSYTYYADSVKGRFTISRDNAKNSLYLQMNSLRAEDTAVYYCAPTTVVPFAYWGQGTLVTVSA
VL: DIQMTQSPSSLSASVGDRVTITCKASQNVRTVVAWYQQKPGKAPKTLIYLASNRHTGVPSRFSGSGSGTEFTLTISNLQPEDFATYYCLQHWSYPLTFGSGTKLEVK
notes: Mouse A33 was humanized as IgG1 and tested in IgG format; also called VH1/VK4; huA33 IgG1
- Kd [22]: 0.168 nM
- EC50 [23]: 0.503 µg/mL
- EC50 [24]: 0.466 µg/mL
